Assay results: paper doi:10.1101/2023.12.08.570772 (bioRxiv, 2023)

B1: Full length MAGEA4 WT (N-terminal histidine tag) (natural protein)
chain: MSSEQKSQHCKPEEGVEAQEEALGLVGAQAPTTEEQEAAVSSSSPLVPGTLEEVPAAESAGPPQSPQGASALPTTISFTCWRQPNEGSSSQEEEGPSTSPDAESLFREALSNKVDELAHFLLRKYRAKELVTKAEMLERVIKNYKRCFPVIFGKASESLKMIFGIDVKEVDPASNTYTLVTCLGLSYDGLLGNNQIFPKTGLLIIVLGTIAMEGDSASEEEIWEELGVMGVYDGREHTVYGEPRKLLTQDWVQENYLEYRQVPGSNPARYEFLWGPRALAETSYVKVLEHVVRVNARVRIAYPSLREAALLEEEEGV

Legend:
[1] = target: His-tagged full length (FL) wildtype (WT) RAD18 (human, UniProt Q9NS91 1-495); test: cross-linking
Sequence of His-tagged full length (FL) wildtype (WT) RAD18 (Q9NS91 whole entry): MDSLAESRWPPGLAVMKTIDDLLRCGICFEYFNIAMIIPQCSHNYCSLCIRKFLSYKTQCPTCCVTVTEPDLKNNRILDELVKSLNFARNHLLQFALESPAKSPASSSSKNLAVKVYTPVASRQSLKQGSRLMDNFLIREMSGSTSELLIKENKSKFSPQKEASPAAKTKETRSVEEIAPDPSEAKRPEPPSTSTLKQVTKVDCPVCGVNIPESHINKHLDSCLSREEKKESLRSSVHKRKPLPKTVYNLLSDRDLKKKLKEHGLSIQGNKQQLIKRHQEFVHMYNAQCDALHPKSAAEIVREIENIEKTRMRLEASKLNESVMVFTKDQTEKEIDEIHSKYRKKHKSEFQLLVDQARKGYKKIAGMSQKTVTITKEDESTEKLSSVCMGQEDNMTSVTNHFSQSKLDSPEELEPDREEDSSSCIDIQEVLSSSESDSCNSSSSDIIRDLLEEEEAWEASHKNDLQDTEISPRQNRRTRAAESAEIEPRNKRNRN

[2] = target: B1; test: ITC
Full length MAGEA4 M161D = target: T1, Full length MAGEA4 M161D (human, UniProt P43358 1-317, M161D); test: ITC
T1 sequence: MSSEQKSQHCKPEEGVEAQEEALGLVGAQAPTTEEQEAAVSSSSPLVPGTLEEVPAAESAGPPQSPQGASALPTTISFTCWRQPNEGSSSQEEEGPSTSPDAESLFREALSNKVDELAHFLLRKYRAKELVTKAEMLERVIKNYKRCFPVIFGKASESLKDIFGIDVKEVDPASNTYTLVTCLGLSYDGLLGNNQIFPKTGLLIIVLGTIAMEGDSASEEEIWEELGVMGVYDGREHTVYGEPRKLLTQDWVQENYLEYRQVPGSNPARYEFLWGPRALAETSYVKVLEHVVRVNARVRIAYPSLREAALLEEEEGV

B1
binding result [1]: binds

SKYRKKHKSEFQLLVDQARKGYKKIAG [RAD18 R6BD peptide (27 amino acid peptide containing amino acids 340-366 of RAD18)]
Kd [2]: 405 nM
Kd (Full length MAGEA4 M161D): 1660 nM
